“And” between values parts separate entries of the source, which are not always exact repeats. Equal entries are not always repeated. Where two headings read alike, the source gives them in different places.
Legend:
[1] = target: purified recombinant Ded1p (S. cerevisiae) (UniProt P06634); test: cross-linking
[2] = target: purified recombinant Ded1p (S. cerevisiae) (UniProt P06634); test: cross-linking; remark: listed apart in the source

purified recombinant Ded1p (from UniProt P06634 1-604) (natural protein; other documents disagree on this pair)
stoichiometry N [1]: < 5
stoichiometry N [2]: 2 and 3

Reference: paper PMC4546514
